From PMC4167235 come the findings set out here.

The target in the experiment is secretory phospholipase A2 (sPLA2) from Crotalus durissus terrificus (Crotalus durissus terrificus) (UniProt P62022). The experiment can be described thus: MALDI-TOF mass spectrometry.

As for “secretory phospholipase A2 (sPLA2) from Crotalus durissus terrificus (from UniProt P62022 17-138) (enzyme)”, the stoichiometry N is 2.

As usually defined, the stoichiometry N is a count of units in the complex or per binding partner.
